Measured values from patent US20240132625A1 (KOREA ADVANCED INSTITUTE OF SCIENCE AND TECHNOLOGY, published 2024).

Columns and labels:
[1] = molecular target: Receptor-binding domain of the SARS-CoV-2 spike protein (biotinylated, Acrobio system) (SARS-CoV-2, UniProt P0DTC2 319-541); test: BLI
[2] = molecular target: the molecule itself; test: homodimerisation; method not stated (FIG. 2)

B1: CV30 (antibody, V domains shown)
VH: EVQLVESGGGLIQPGGSLRLSCAASGVIVSSNYMSWVRQAPGKGLEWVSVIYSGGSTYYADSVKGRFTISRDNSKNTLYLQMNSLRAEDTAVYYCARDLDVSGGMDVWGQGTTVTVSS
VL: not shown
B1 showed a Kd [1] of no more than 10 pM.

B2: homodimeric coiled-coil (HomoCC) (designed binder)
chain: DEEQRKVVEEDLKVLEHLRRVVERKEHLVRDAYEETFDDQQREVVREKLKVLEHLEKVIERDRHLSSRPGL
For B2, the Kd [2] was 7.6 µM.
